Patent US20240239890A1 (Chugai, published 2024)

B1: RNN0193jj with rabbit constant region (antibody)
heavy: QSLEESGGDLVKPGASLTLTCTASGFSFSNNYWICWVRQAPGKGPEWIACIYTGDGDTDYASWAKGRFTISKTSSTTVTLQMTSLTAADTATYFCAREAGTVDGVWNYVFNLWGPGTLVTVSSGQPKAPSVFPLAPCCGDTPSSTVTLGCLVKGYLPEPVTVTWNSGTLTNGVRTFPSVRQSSGLYSLSSVVSVTSSSQPVTCNVAHPATNTKVDKTVAPSTCSKPMCPPPELLGGPSVFIFPPKPKDTLMISRTPEVTCVVVDVSQDDPEVQFTWYINNEQVRTARPPLREQQFNSTIRVVSTLPIAHQDWLRGKEFKCKVHNKALPAPIEKTISKARGQPLEPKVYTMGPPREELSSRSVSLTCMINGFYPSDISVEWEKNGKAEDNYKTTPTVLDSDGSYFLYSKLSVPTSEWQRGDVFTCSVMHEALHNHYTQKSISRSPGK
light: AQVLTQTPSPVSAAVGGTVTISCQSSQSVYNDNLAWFQQKPGQPPKLLIYDASTLASGVPSRFKGSGSGTQFTLTISKLQCDDAATYYCQGVYIGHIFTFGGGTKVEIKRDPVAPTVLIFPPAADQVATGTVTIVCVANKYFPDVTVTWEVDGTTQTTGIENSKTPQNSADCTYNLSSTLTLTSTQYNSHKEYTCKVTQGTTSVVQSFNRGDC
B2: RNN0207ii with rabbit constant region (antibody)
heavy: QEQLEESGGRLVTPGGSLTLTCTASGFSLSSYVISWVRQAPGEGLEYIGYVSTGGSPYYASWAKGRFTISRTSTAVDLKMTSLTASDTATYFCARYGYLDYSGLDLWGQGTLVTVSSGQPKAPSVFPLAPCCGDTPSSTVTLGCLVKGYLPEPVTVTWNSGTLTNGVRTFPSVRQSSGLYSLSSVVSVTSSSQPVTCNVAHPATNTKVDKTVAPSTCSKPMCPPPELLGGPSVFIFPPKPKDTLMISRTPEVTCVVVDVSQDDPEVQFTWYINNEQVRTARPPLREQQFNSTIRVVSTLPIAHQDWLRGKEFKCKVHNKALPAPIEKTISKARGQPLEPKVYTMGPPREELSSRSVSLTCMINGFYPSDISVEWEKNGKAEDNYKTTPTVLDSDGSYFLYSKLSVPTSEWQRGDVFTCSVMHEALHNHYTQKSISRSPGK
light: AQVLTQTPSSTSTAVGGTVTINCQSSQSVYEYNHLSWFQQKPGQPPKLLIYGASTLASGVPSRFKGSGSGTQFTLTISDLECDDAATYYCQGAYYGVVDTFGGGTKVEIKRDPVAPTVLIFPPAADQVATGTVTIVCVANKYFPDVTVTWEVDGTTQTTGIENSKTPQNSADCTYNLSSTLTLTSTQYNSHKEYTCKVTQGTTSVVQSFNRGDC
B3: RNN0242nn with rabbit constant region (antibody)
heavy: QQQLEEYGGDLVQPEGSLTLTCKASGLDFSSSYWMCWVRQAPGKGLEWIACIYTGSSGSTSYASWAKGRFTISKTSSTTVTLQMTSLTAADTATYFCARDYDYTAYAYGIMSLWGPGTLVTVSSGQPKAPSVFPLAPCCGDTPSSTVTLGCLVKGYLPEPVTVTWNSGTLTNGVRTFPSVRQSSGLYSLSSVVSVTSSSQPVTCNVAHPATNTKVDKTVAPSTCSKPMCPPPELLGGPSVFIFPPKPKDTLMISRTPEVTCVVVDVSQDDPEVQFTWYINNEQVRTARPPLREQQFNSTIRVVSTLPIAHQDWLRGKEFKCKVHNKALPAPIEKTISKARGQPLEPKVYTMGPPREELSSRSVSLTCMINGFYPSDISVEWEKNGKAEDNYKTTPTVLDSDGSYFLYSKLSVPTSEWQRGDVFTCSVMHEALHNHYTQKSISRSPGK
light: AEIVMTQTPSSKSAAVGDTVTIKCQASQSITSYLSWYQQKPGQPPKLLIYRASTLASGVPSRFKGSGSGTQFTLTISDLECADAATYYCQSNYGSYSTNYGVTFGGGTKVEIKRDPVAPTVLIFPPAADQVATGTVTIVCVANKYFPDVTVTWEVDGTTQTTGIENSKTPQNSADCTYNLSSTLTLTSTQYNSHKEYTCKVTQGTTSVVQSFNRGDC
B4: RNN0187jj with rabbit constant region (antibody)
heavy: QSLEESGGDLVKPGASLTLTCTASGFSFNSAYYMCWVRQAPGKGLEWIGCIYTGSGSTYYASWAKGRFTISKTSSTTVTLQMTSLTVADTATYFCARSGVSTYYTLWGPGTLVTVSSGQPKAPSVFPLAPCCGDTPSSTVTLGCLVKGYLPEPVTVTWNSGTLTNGVRTFPSVRQSSGLYSLSSVVSVTSSSQPVTCNVAHPATNTKVDKTVAPSTCSKPMCPPPELLGGPSVFIFPPKPKDTLMISRTPEVTCVVVDVSQDDPEVQFTWYINNEQVRTARPPLREQQFNSTIRVVSTLPIAHQDWLRGKEFKCKVHNKALPAPIEKTISKARGQPLEPKVYTMGPPREELSSRSVSLTCMINGFYPSDISVEWEKNGKAEDNYKTTPTVLDSDGSYFLYSKLSVPTSEWQRGDVFTCSVMHEALHNHYTQKSISRSPGK
light: DVVMTQTPSSVSAAVGGTVTIKCQASQSIYSGLAWYQQKPGQPPKLLIYGASTLASGVPSRFKGSGSGTEYTLTISGVQCDDAATYYCQNNYYTPSNGWAFGGGTKVEIKRDPVAPTVLIFPPAADQVATGTVTIVCVANKYFPDVTVTWEVDGTTQTTGIENSKTPQNSADCTYNLSSTLTLTSTQYNSHKEYTCKVTQGTTSVVQSFNRGDC
B5: RNN0192nn with rabbit constant region (antibody)
heavy: QEQLVESGGGLVQPEGSLTLTCTASGFSFSSRYYMCWVRQAPGKGLEWIGCIYTGSGSTYYASWAKGRVTISKTSSTTVTLQMTSLTAADTATYFCAREAGSFNLWGPGTLVTVSSGQPKAPSVFPLAPCCGDTPSSTVTLGCLVKGYLPEPVTVTWNSGTLTNGVRTFPSVRQSSGLYSLSSVVSVTSSSQPVTCNVAHPATNTKVDKTVAPSTCSKPMCPPPELLGGPSVFIFPPKPKDTLMISRTPEVTCVVVDVSQDDPEVQFTWYINNEQVRTARPPLREQQFNSTIRVVSTLPIAHQDWLRGKEFKCKVHNKALPAPIEKTISKARGQPLEPKVYTMGPPREELSSRSVSLTCMINGFYPSDISVEWEKNGKAEDNYKTTPTVLDSDGSYFLYSKLSVPTSEWQRGDVFTCSVMHEALHNHYTQKSISRSPGK
light: DVVMTQTPASVSEPVGGTVTIKCQASQSIYSGLAWYQQKPGQPPKLLIYSASKLASGVPSRFKGSGSGTEYTLTISDLECADAATYYCQNYYYGISNGWTFGGGTKVEIKRDPVAPTVLIFPPAADQVATGTVTIVCVANKYFPDVTVTWEVDGTTQTTGIENSKTPQNSADCTYNLSSTLTLTSTQYNSHKEYTCKVTQGTTSVVQSFNRGDC

Target: T1, Human RNF43 ECD with Fc region fused on its C-terminus (human)
T1 construct: also called RNF43-Fc
T1 chain: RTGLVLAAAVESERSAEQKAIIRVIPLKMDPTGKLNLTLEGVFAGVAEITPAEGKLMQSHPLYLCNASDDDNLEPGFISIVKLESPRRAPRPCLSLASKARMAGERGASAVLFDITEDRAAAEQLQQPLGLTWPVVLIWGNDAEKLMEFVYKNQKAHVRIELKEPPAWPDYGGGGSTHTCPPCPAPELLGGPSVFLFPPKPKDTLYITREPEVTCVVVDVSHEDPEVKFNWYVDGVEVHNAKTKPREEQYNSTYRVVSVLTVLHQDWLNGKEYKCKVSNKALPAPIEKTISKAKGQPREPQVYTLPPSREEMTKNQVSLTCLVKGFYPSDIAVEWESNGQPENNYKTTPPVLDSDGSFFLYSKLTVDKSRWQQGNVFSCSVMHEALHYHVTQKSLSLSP
Test: competition ELISA on coated RNF43-Fc; first antibody unlabelled at 10x its EC50, second (reference) antibody biotinylated RNN0187jj at its EC50
Procedure: (§1) EC50 concentration for the binding of each anti-RNF43 monospecific antibody to RNF43-Fc (described in Example 2) was first determined by ELISA assay, using the biotinylated antibodies. In brief, RNF43-Fc at 5 micro g/mL or 1 micro g/mL was coated on Maxisorp plate (NUNC) at 4 degrees C. overnight. The coated plate was then washed with PBS-T, followed by blocking with Blocking One solution (Nacalai Tesque) for 2 hours at room temperature. Serially diluted, biotinylated anti-RNF43 monospecific antibody was then added and incubated for 1 hour at room temperature. After washing with PBS-T, StAv-HRP (PIERCE) was added and incubated for 1 hour at room temperature. After washing with PBS-T, ABTS Peroxidase substrate (SeraCare Life Sciences) was added and signal intensity was measured using Multiskan™ GO Microplate Spectrophotometer. EC50 concentration for the binding of the anti-RNF43 monospecific antibody to RNF43-Fc was calculated using Non-linear regression 4-parameter fit. The normalized absorbance at 405 nm/570 nm measured when EC50 concentration of anti-RNF43 antibodies was applied is denoted as AO.
(§2) To evaluate binding competition between the anti-RNF43 monospecific antibodies, ELISA assay with similar setting was conducted. RNF43-Fc was first coated in Maxisorp plate overnight. […] After washing with PBS-T, ABTS Peroxidase substrate was added and signal intensity was measured using Multiskan™ GO Microplate Spectrophotometer. The normalized absorbance at 405 nm/570 nm is denoted as A.

Point of comparison: B5, “binding inhibition (%)” value 91%. Against it:
- B1 — lower, 3.21%
- B2 — lower, -0.38%
- B3 — lower, 11.4%
- B4 — lower, 30.7%

Target: T1, Human RNF43 ECD with Fc region fused on …
Test: competition ELISA on coated RNF43-Fc; first antibody unlabelled at 10x its EC50, second (reference) antibody biotinylated RNN0192nn at its EC50
Procedure: as §1, §2

Point of comparison: B5, “binding inhibition (%)” value 88.5%. Against it:
- B1 — lower, -15.2%
- B2 — lower, -3.55%
- B3 — lower, 9.66%
- B4 — lower, 60.6%

Target: T1, Human RNF43 ECD with Fc region fused on …
Test: competition ELISA on coated RNF43-Fc; first antibody unlabelled at 10x its EC50, second (reference) antibody biotinylated RNN0193jj at its EC50
Procedure: as §1, §2

Point of comparison: B4, “binding inhibition (%)” value 2.35%. Against it:
- B1 — higher, 50.2%
- B2 — lower, 1.05%
- B3 — higher, 12.6%
- B5 — lower, 0.25%

Target: T1, Human RNF43 ECD with Fc region fused on …
Test: competition ELISA on coated RNF43-Fc; first antibody unlabelled at 10x its EC50, second (reference) antibody biotinylated RNN0207ii at its EC50
Procedure: as §1, §2

Point of comparison: B1, “binding inhibition (%)” value -1.42%. Against it:
- B2 — higher, 65.9%
- B3 — higher, 1.62%
- B4 — higher, 1.89%
- B5 — lower, -6.42%

Target: T1, Human RNF43 ECD with Fc region fused on …
Test: competition ELISA on coated RNF43-Fc; first antibody unlabelled at 10x its EC50, second (reference) antibody biotinylated RNN0242nn at its EC50
Procedure: as §1, §2

Point of comparison: B1, “binding inhibition (%)” value 21.3%. Against it:
- B2 — lower, -0.71%
- B3 — higher, 86.8%
- B4 — higher, 22.3%
- B5 — higher, 45.6%

Target: T1, Human RNF43 ECD with Fc region fused on …
Test: competition ELISA on coated RNF43-Fc; first antibody unlabelled at 10x its EC50, second (reference) antibody biotinylated RNN0246jj at its EC50
Procedure: as §1, §2

Point of comparison: B2, “binding inhibition (%)” value -1.38%. Against it:
- B1 — higher, 5.04%
- B3 — higher, 74.7%
- B4 — higher, 15.1%
- B5 — higher, 21.9%
